Data from the supplement of paper PMC10567573.

B1: TNNI2 (parent)
chain: DWRKNIEEKSGMEGRKKMFESES
B2: TRIM29 (parent)
chain: RKCPVHGKTMELFCQTDQTCICYL

Variants of: B1
Assay: protein stability index of a GFP-peptide fusion (GPS, HEK-293T) (PSI 1-6); higher = more stable
Settings: c terminus: native
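Also: lentivirally expressed fusions sorted by FACS into six bins by GFP to DsRed ratio, PSI derived from sequencing read proportions per bin multiplied by bin number.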

Q: Which protein stability index does the source give for M18R here?
A: 4.45

Q: With M18P as the variant, how does the protein stability index read?
A: 4.59

Q: For M18V, which protein stability index is on record?
A: 2.39

Q: For M18W, which protein stability index is on record?
A: 1.66

Q: For M18N, which protein stability index is on record?
A: 4.47

Q: Which protein stability index does the source give for M18S here?
A: 4.36

Q: With M18T as the variant, how does the protein stability index read?
A: 4.9

Q: For M18Y, which protein stability index is on record?
A: 1.85

Q: Which protein stability index does the source give for M18K here?
A: 2.78

Q: With M18L as the variant, how does the protein stability index read?
A: 1.13

Q: For S21Y, which protein stability index is on record?
A: 4.05

Q: With S21L as the variant, how does the protein stability index read?
A: 3.92

Q: Which protein stability index does the source give for S21P here?
A: 1.37

Q: Which protein stability index does the source give for S21E here?
A: 5.2

Q: For S21R, which protein stability index is on record?
A: 3.41

Q: For S21K, which protein stability index is on record?
A: 3.49

Q: With S21A as the variant, how does the protein stability index read?
A: 1.5

Q: With S21M as the variant, how does the protein stability index read?
A: 3.92

Q: For S21Q, which protein stability index is on record?
A: 4.96

Q: Which protein stability index does the source give for S21N here?
A: 3.39

Q: Which protein stability index does the source give for S21D here?
A: 5.47

Q: For S21F, which protein stability index is on record?
A: 4.49

Q: With S21V as the variant, how does the protein stability index read?
A: 2.39

Q: With S21C as the variant, how does the protein stability index read?
A: 3.19

Q: For S21W, which protein stability index is on record?
A: 3.35

Q: With S21H as the variant, how does the protein stability index read?
A: 2.9

Q: For S21T, which protein stability index is on record?
A: 4.47

Q: Which protein stability index does the source give for E22V here?
A: 3.77

Q: For E22R, which protein stability index is on record?
A: 1.58

Q: For E22G, which protein stability index is on record?
A: 5.04

Q: With E22P as the variant, how does the protein stability index read?
A: 2.06

Q: Which protein stability index does the source give for E22S here?
A: 5.13

Q: For E22D, which protein stability index is on record?
A: 3.81

Q: For E22M, which protein stability index is on record?
A: 3.29

Q: For E22F, which protein stability index is on record?
A: 4.22

Q: Which protein stability index does the source give for E22I here?
A: 3.3

Q: With E22H as the variant, how does the protein stability index read?
A: 4

Q: With E22T as the variant, how does the protein stability index read?
A: 5.25

Q: For E22C, which protein stability index is on record?
A: 3.71

Q: For E22Q, which protein stability index is on record?
A: 4.33

Q: For E22L, which protein stability index is on record?
A: 3.17

Q: With E22Y as the variant, how does the protein stability index read?
A: 3.84

Q: Which protein stability index does the source give for E22K here?
A: 4.67

Q: For E22W, which protein stability index is on record?
A: 3.86

Q: Which protein stability index does the source give for E22N here?
A: 4.44

Q: With E20W as the variant, how does the protein stability index read?
A: 3.71

Q: For E20C, which protein stability index is on record?
A: 2.67

Q: Which protein stability index does the source give for E20K here?
A: 2.92

Q: With E20S as the variant, how does the protein stability index read?
A: 4.04

Q: For E20T, which protein stability index is on record?
A: 2.94

Q: Which protein stability index does the source give for E20G here?
A: 4.73

Q: For E20P, which protein stability index is on record?
A: 5.16

Q: For E20D, which protein stability index is on record?
A: 3.65

Q: For E20R, which protein stability index is on record?
A: 2.22

Q: With E20H as the variant, how does the protein stability index read?
A: 4.26

Q: With E20Y as the variant, how does the protein stability index read?
A: 3.81

Q: Which protein stability index does the source give for E20F here?
A: 4.56

Q: With E20L as the variant, how does the protein stability index read?
A: 2.33

Q: With E20M as the variant, how does the protein stability index read?
A: 2.75

Q: With E20Q as the variant, how does the protein stability index read?
A: 3.54

Q: With E20V as the variant, how does the protein stability index read?
A: 2.79

Q: Which protein stability index does the source give for E20A here?
A: 2.88

Q: Which protein stability index does the source give for E20I here?
A: 2.89

Q: With F19P as the variant, how does the protein stability index read?
A: 4.51

Q: Which protein stability index does the source give for F19R here?
A: 4.97

Q: With F19C as the variant, how does the protein stability index read?
A: 4.42

Q: Which protein stability index does the source give for F19N here?
A: 5.46

Q: For F19I, which protein stability index is on record?
A: 4.22

Q: Which protein stability index does the source give for F19T here?
A: 4.8

Q: Which protein stability index does the source give for F19Y here?
A: 2.22

Q: Which protein stability index does the source give for F19K here?
A: 5.64

Q: With F19Q as the variant, how does the protein stability index read?
A: 4.78

Q: Which protein stability index does the source give for F19H here?
A: 3.76

Q: With F19M as the variant, how does the protein stability index read?
A: 2.82

Q: Which protein stability index does the source give for F19W here?
A: 1.48

Q: With F19S as the variant, how does the protein stability index read?
A: 5.6

Q: Which protein stability index does the source give for F19E here?
A: 5.03

Q: Which protein stability index does the source give for F19D here?
A: 5.43

Q: With F19A as the variant, how does the protein stability index read?
A: 5.06

Q: For S23F, which protein stability index is on record?
A: 3.02

Q: Which protein stability index does the source give for S23G here?
A: 3.42

Q: Which protein stability index does the source give for S23T here?
A: 1.42

Q: With S23N as the variant, how does the protein stability index read?
A: 4.46

Q: For S23P, which protein stability index is on record?
A: 2.42

Q: For S23H, which protein stability index is on record?
A: 2.87

Q: For S23C, which protein stability index is on record?
A: 1.53

Q: For S23K, which protein stability index is on record?
A: 2.63

Q: Which protein stability index does the source give for S23R here?
A: 2.15

Q: Which protein stability index does the source give for S23I here?
A: 1.59

Q: For S23Y, which protein stability index is on record?
A: 2.59

Variants of: B2
Assay: as above
Settings: c terminus: a fixed tail appended

Q: Which protein stability index does the source give for P4C here?
A: 4.04

Q: For P4E, which protein stability index is on record?
A: 3.3

Q: For P4F, which protein stability index is on record?
A: 3.42

Q: For P4V, which protein stability index is on record?
A: 2.21

Q: With P4N as the variant, how does the protein stability index read?
A: 3.09

Q: With P4S as the variant, how does the protein stability index read?
A: 2.41

Q: With P4L as the variant, how does the protein stability index read?
A: 3.39

Q: Which protein stability index does the source give for P4I here?
A: 2.52

Q: Which protein stability index does the source give for P4Y here?
A: 2.12

Q: With P4W as the variant, how does the protein stability index read?
A: 2.91

Q: For P4R, which protein stability index is on record?
A: 3.52

Q: Which protein stability index does the source give for P4K here?
A: 2.58

Q: Which protein stability index does the source give for P4T here?
A: 2.25

Q: With P4A as the variant, how does the protein stability index read?
A: 2.54

Q: Which protein stability index does the source give for P4D here?
A: 2.63

Q: Which protein stability index does the source give for P4Q here?
A: 1.95

Q: With R1N as the variant, how does the protein stability index read?
A: 2.84

Q: With R1A as the variant, how does the protein stability index read?
A: 2.68

Q: Which protein stability index does the source give for R1W here?
A: 2.46

Q: Which protein stability index does the source give for R1D here?
A: 1.67

Q: With R1H as the variant, how does the protein stability index read?
A: 3

Q: With R1C as the variant, how does the protein stability index read?
A: 2.39

Q: Which protein stability index does the source give for R1T here?
A: 2.32

Q: Which protein stability index does the source give for R1P here?
A: 2.66

Q: With R1F as the variant, how does the protein stability index read?
A: 1.95

Q: Which protein stability index does the source give for R1V here?
A: 2.98

Q: With R1G as the variant, how does the protein stability index read?
A: 3.33

Q: With R1L as the variant, how does the protein stability index read?
A: 3.04

Q: Which protein stability index does the source give for R1I here?
A: 1.65

Q: With R1S as the variant, how does the protein stability index read?
A: 2.19

Q: Which protein stability index does the source give for R1M here?
A: 1.95

Q: Which protein stability index does the source give for R1E here?
A: 1.71

Q: For R1K, which protein stability index is on record?
A: 2.22

Q: Which protein stability index does the source give for R1Q here?
A: 1.91

Q: For R1Y, which protein stability index is on record?
A: 2.48

Q: With C3H as the variant, how does the protein stability index read?
A: 2.27

Q: For C3G, which protein stability index is on record?
A: 2.1

Q: For C3N, which protein stability index is on record?
A: 2.92

Q: With C3D as the variant, how does the protein stability index read?
A: 2.13

Q: For C3S, which protein stability index is on record?
A: 2.54

Q: Which protein stability index does the source give for C3I here?
A: 3.19

Q: For C3Q, which protein stability index is on record?
A: 2.64

Q: Which protein stability index does the source give for C3T here?
A: 3.1

Q: For C3F, which protein stability index is on record?
A: 2.35

Q: For C3A, which protein stability index is on record?
A: 3.58

Q: With C3R as the variant, how does the protein stability index read?
A: 2.12

Q: With C3V as the variant, how does the protein stability index read?
A: 1.86

Q: For C3P, which protein stability index is on record?
A: 1.97

Q: Which protein stability index does the source give for C3L here?
A: 2.3

Q: Which protein stability index does the source give for C3Y here?
A: 1.9

Q: With C3W as the variant, how does the protein stability index read?
A: 2.72

Q: With C3E as the variant, how does the protein stability index read?
A: 2.52

Q: For C3K, which protein stability index is on record?
A: 1.89

Q: With V5A as the variant, how does the protein stability index read?
A: 1.72

Q: For V5G, which protein stability index is on record?
A: 3.21

Q: For V5E, which protein stability index is on record?
A: 1.79

Q: Which protein stability index does the source give for V5C here?
A: 3.08

Q: Which protein stability index does the source give for V5D here?
A: 3.62

Q: Which protein stability index does the source give for K2I here?
A: 1.94

Q: Which protein stability index does the source give for K2R here?
A: 1.69

Q: For K2H, which protein stability index is on record?
A: 2.15

Q: With K2F as the variant, how does the protein stability index read?
A: 2.36

Q: Which protein stability index does the source give for K2C here?
A: 1.82

Q: Which protein stability index does the source give for K2E here?
A: 1.65

Q: With K2S as the variant, how does the protein stability index read?
A: 2.27

Q: With K2Q as the variant, how does the protein stability index read?
A: 2.12

Q: With K2V as the variant, how does the protein stability index read?
A: 2.02

Q: For K2T, which protein stability index is on record?
A: 1.7

Q: Which protein stability index does the source give for K2N here?
A: 2.68

Q: For K2W, which protein stability index is on record?
A: 2.91

Q: For K2G, which protein stability index is on record?
A: 2.57

Q: Which protein stability index does the source give for K2A here?
A: 2.54

Q: With K2M as the variant, how does the protein stability index read?
A: 2.17

Q: With K2Y as the variant, how does the protein stability index read?
A: 1.8

Q: With K2P as the variant, how does the protein stability index read?
A: 3.02

Q: Which protein stability index does the source give for K2L here?
A: 2.36

Q: Which protein stability index does the source give for K2D here?
A: 2.15
